The values below come from paper doi:10.1101/544239 (bioRxiv, 2019).

The data set “AUC” concerns the molecule itself. As to the kind of experiment: AUC.
The target in data set [1] is T1, CheW-CheA complex of Helicobacter pylori (Helicobacter pylori (G27 strain) | …, UniProt B5Z859 1-807; O25152 1-165).
T1 sequence (looked up) 1: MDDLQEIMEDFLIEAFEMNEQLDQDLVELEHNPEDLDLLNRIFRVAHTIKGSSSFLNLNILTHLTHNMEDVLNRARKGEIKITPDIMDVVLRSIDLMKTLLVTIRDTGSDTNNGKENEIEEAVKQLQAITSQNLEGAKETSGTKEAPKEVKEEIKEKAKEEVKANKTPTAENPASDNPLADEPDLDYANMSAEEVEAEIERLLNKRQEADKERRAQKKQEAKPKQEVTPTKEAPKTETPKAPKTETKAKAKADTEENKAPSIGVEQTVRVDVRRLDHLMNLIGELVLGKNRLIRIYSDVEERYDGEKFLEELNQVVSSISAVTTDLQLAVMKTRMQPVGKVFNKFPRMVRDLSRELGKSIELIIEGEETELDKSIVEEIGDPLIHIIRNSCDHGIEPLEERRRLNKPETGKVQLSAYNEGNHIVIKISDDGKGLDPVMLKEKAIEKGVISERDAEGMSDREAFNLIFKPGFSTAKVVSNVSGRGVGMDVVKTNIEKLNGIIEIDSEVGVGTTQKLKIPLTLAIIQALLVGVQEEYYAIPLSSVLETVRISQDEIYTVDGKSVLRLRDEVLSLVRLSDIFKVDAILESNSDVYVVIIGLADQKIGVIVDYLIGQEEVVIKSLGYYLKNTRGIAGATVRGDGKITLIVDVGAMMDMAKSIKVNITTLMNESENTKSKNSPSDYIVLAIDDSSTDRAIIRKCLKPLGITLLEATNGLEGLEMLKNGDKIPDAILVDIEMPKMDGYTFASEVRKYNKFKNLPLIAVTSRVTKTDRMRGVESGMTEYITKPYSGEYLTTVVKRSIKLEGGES
T1 sequence (looked up) 2: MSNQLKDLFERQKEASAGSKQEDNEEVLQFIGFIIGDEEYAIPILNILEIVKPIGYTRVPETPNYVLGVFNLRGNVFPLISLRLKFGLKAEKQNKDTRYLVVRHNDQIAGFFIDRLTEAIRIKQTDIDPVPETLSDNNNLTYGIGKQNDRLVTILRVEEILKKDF
The experiment in a line: kinase activity titration.

For data set [2], the target named is T2, Helicobacter pylori histidine kinase CheA, strain G27 (Helicobacter pylori (G27 strain), UniProt B5Z859 1-807).
T2 sequence (looked up): T1 sequence (looked up) 1
As to the kind of experiment: kinase activity titration.

B1: Helicobacter pylori transducer-like protein D (TlpD), strain SS1 (receptor)
chain: not shown
For the molecule B1, the Kd came to 0.15 µM in the data set “AUC” and 15.2 µM in data set [1]. In addition, the “stoichiometry N” value in the data set “AUC” is 2.

B2: Helicobacter pylori scaffold protein CheW, strain SS1 (natural protein, Helicobacter pylori (SS1 strain), UniProt O25152 1-165, looked up)
chain: T1 sequence (looked up) 2
Regarding B2, the Kd in data set [2] amounted to 14.6 µM. This counts as double-digit micromolar.

By Kd is commonly meant the equilibrium constant for the complex coming apart. Lower therefore signals higher affinity. What is called stoichiometry N is a count of units in the complex or per binding partner.
